The test system of data set [1] is HeLa Kyoto. The data set is described as follows: solubility in G1/S (NP-40 vs SDS abundance) (log2 ratio); higher = more soluble. The conditions noted are these: cell cycle stage: G1/S.
Data set [2] has as its system HeLa Kyoto. The data set is described as follows: melting temperature (median over replicates), in situ; higher = more thermally stable.
The subject of data set [3] is HeLa Kyoto. The data set is described as follows: solubility change mitosis vs G1/S (difference of NP-40 vs SDS log2 ratios) (log2 ratio difference); higher = more soluble in mitosis.
For data set [4], the system named is HeLa Kyoto. The data set is described as follows: thermal stability score vs G1/S (z-score of summed log2 fold changes over temperatures); higher = more thermally stable than in G1/S.
Setting [5] is: cell cycle stage: early G1 (4.5 h after nocodazole release).
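For melting temperature (median over replicates), in situ in this document: HeLa Kyoto cells synchronized by double thymidine or nocodazole block, proteins quantified by TMT10plex mass spectrometry, three independent biological replicates.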
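For solubility change mitosis vs G1/S (difference of NP-40 vs SDS log2 ratios) in this document: synchronized HeLa Kyoto cells (double thymidine block for G1/S, nocodazole release for mitosis), protein amounts in NP-40 versus SDS lysates quantified by mass spectrometry, three biological replicates.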
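For solubility in G1/S (NP-40 vs SDS abundance) in this document: HeLa Kyoto cells arrested at G1/S by double thymidine block, proteins quantified by TMT10plex mass spectrometry in mild NP-40 versus SDS extracts, three biological replicates.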
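For thermal stability score vs G1/S (z-score of summed log2 fold changes over temperatures) in this document: synchronized HeLa Kyoto cells, proteins quantified by TMT10plex mass spectrometry, three biological replicates, mitosis taken 0.5 h after nocodazole release, G1/S directly after double thymidine block.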

On to “MSFVAGVIRRLDETVVNRIAAGEVIQRPANAIKEMIENCLDAKSTSIQVIVKEGGLKLIQIQDNGTGIRKEDLDIVCERFTTSKLQSFEDLASISTYGFRGEALASISHVAHVTITTKTADGKCAYRASYSDGKLKAPPKPCAGNQGTQITVEDLFYNIATRRKALKNPSEEYGKILEVVGRYSVHNAGISFSVKKQGETVADVRTLPNASTVDNIRSIFGNAVSRELIEIGCEDKTLAFKMNGYISNANYSVKKCIFLLFINHRLVESTSLRKAIETVYAAYLPKNTHPFLYLSLEISPQNVDVNVHPTKHEVHFLHEESILERVQQHIESKLLGSNSSRMYFTQTLLPGLAGPSGEMVKSTTSLTSSSTSGSSDKVYAHQMVRTDSREQKLDAFLQPLSKPLSSQPQAIVTEDKTDISSGRARQQDEEMLELPAPAEVAAKNQSLEGDTTKGTSEMSEKRGPTSSNPRKRHREDSDVEMVEDDSRKEMTAACTPRRRIINLTSVLSLQEEINEQGHEVLREMLHNHSFVGCVNPQWALAQHQTKLYLLNTTKLSEELFYQILIYDFANFGVLRLSEPAPLFDLAMLALDSPESGWTEEDGPKEGLAEYIVEFLKKKAEMLADYFSLEIDEEGNLIGLPLLIDNYVPPLEGLPIFILRLATEVNWDEEKECFESLSKECAMFYSIRKQYISEESTLSGQQSEVPGSIPNSWKWTVEHIVYKALRSHILPPKHFTEDGNILQLANLPDLYKVFERC [MLH1]”, for which the “solubility in G1/S (log2)” value with HeLa Kyoto [1] is -0.0862. Besides, the values for the melting temperature with HeLa Kyoto [2] (cell cycle stage: G1/S) and with HeLa Kyoto [2] (cell cycle stage: mitosis) were 46.3 °C and 48.8 °C, respectively. For the same sequence, the “solubility change mitosis (log2)” value with HeLa Kyoto [3] was -0.21. In addition, the thermal stability score with HeLa Kyoto [4] (setting [5]) was found to be 3.37; in the data set with HeLa Kyoto [4] (cell cycle stage: mitosis) it was 5.51.

“MSGCGLFLRTTAAARACRGLVVSTANRRLLRTSPPVRAFAKELFLGKIKKKEVFPFPEVSQDELNEINQFLGPVEKFFTEEVDSRKIDQEGKIPDETLEKLKSLGLFGLQVPEEYGGLGFSNTMYSRLGEIISMDGSITVTLAAHQAIGLKGIILAGTEEQKAKYLPKLASGEHIAAFCLTEPASGSDAASIRSRATLSEDKKHYILNGSKVWITNGGLANIFTVFAKTEVVDSDGSVKDKITAFIVERDFGGVTNGKPEDKLGIRGSNTCEVHFENTKIPVENILGEVGDGFKVAMNILNSGRFSMGSVVAGLLKRLIEMTAEYACTRKQFNKRLSEFGLIQEKFALMAQKAYVMESMTYLTAGMLDQPGFPDCSIEAAMVKVFSSEAAWQCVSEALQILGGLGYTRDYPYERILRDTRILLIFEGTNEILRMYIALTGLQHAGRILTTRIHELKQAKVSTVMDTVGRRLRDSLGRTVDLGLTGNHGVVHPSLADSANKFEENTYCFGRTVETLLLRFGKTIMEEQLVLKRVANILINLYGMTAVLSRASRSIRIGLRNHDHEVLLANTFCVEAYLQNLFSLSQLDKYAPENLDEQIKKVSQQILEKRAYICAHPLDRTC [ACAD9]”: in the data set on HeLa Kyoto [1], the “solubility in G1/S (log2)” value is -0.06. The melting temperature in the data set on HeLa Kyoto [2] (cell cycle stage: G1/S) was found to be 54.6 °C; in the data set with HeLa Kyoto [2] (cell cycle stage: mitosis) it was 54.7 °C. The “solubility change mitosis (log2)” value in the data set with HeLa Kyoto [3] is -0.164. Further, the thermal stability score turned out to be 4.01 with HeLa Kyoto [4] (setting [5]) and 3.04 with HeLa Kyoto [4] (cell cycle stage: mitosis).

On to “MSGDHLHNDSQIEADFRLNDSHKHKDKHKDREHRHKEHKKEKDREKSKHSNSEHKDSEKKHKEKEKTKHKDGSSEKHKDKHKDRDKEKRKEEKVRASGDAKIKKEKENGFSSPPQIKDEPEDDGYFVPPKEDIKPLKRPRDEDDADYKPKKIKTEDTKKEKKRKLEEEEDGKLKKPKNKDKDKKVPEPDNKKKKPKKEEEQKWKWWEEERYPEGIKWKFLEHKGPVFAPPYEPLPENVKFYYDGKVMKLSPKAEEVATFFAKMLDHEYTTKEIFRKNFFKDWRKEMTNEEKNIITNLSKCDFTQMSQYFKAQTEARKQMSKEEKLKIKEENEKLLKEYGFCIMDNHKERIANFKIEPPGLFRGRGNHPKMGMLKRRIMPEDIIINCSKDAKVPSPPPGHKWKEVRHDNKVTWLVSWTENIQGSIKYIMLNPSSRIKGEKDWQKYETARRLKKCVDKIRNQYREDWKSKEMKVRQRAVALYFIDKLALRAGNEKEEGETADTVGCCSLRVEHINLHPELDGQEYVVEFDFLGKDSIRYYNKVPVEKRVFKNLQLFMENKQPEDDLFDRLNTGILNKHLQDLMEGLTAKVFRTYNASITLQQQLKELTAPDENIPAKILSYNRANRAVAILCNHQRAPPKTFEKSMMNLQTKIDAKKEQLADARRDLKSAKADAKVMKDAKTKKVVESKKKAVQRLEEQLMKLEVQATDREENKQIALGTSKLNYLDPRITVAWCKKWGVPIEKIYNKTQREKFAWAIDMADEDYEF [TOP1]”, for which the “solubility in G1/S (log2)” value with HeLa Kyoto [1] is -1.22. Further, the melting temperature in the data set with HeLa Kyoto [2] (cell cycle stage: G1/S) was 46.9 °C; in the data set on HeLa Kyoto [2] (cell cycle stage: mitosis), 49.1 °C. Moreover, the “solubility change mitosis (log2)” value with HeLa Kyoto [3] was found to be 0.531. Moreover, the thermal stability score in the data set on HeLa Kyoto [4] (setting [5]) came to 7.82; with HeLa Kyoto [4] (cell cycle stage: mitosis), 12.

Consider “MSGFLEELLGEKLVTGGGEEVDVHSLGARGISLLGLYFGCSLSAPCAQLSASLAAFYGRLRGDAAAGPGPGAGAGAAAEPEPRRRLEIVFVSSDQDQRQWQDFVRDMPWLALPYKEKHRKLKLWNKYRISNIPSLIFLDATTGKVVCRNGLLVIRDDPEGLEFPWGPKPFREVIAGPLLRNNGQSLESSSLEGSHVGVYFSAHWCPPCRSLTRVLVESYRKIKEAGQNFEIIFVSADRSEESFKQYFSEMPWLAVPYTDEARRSRLNRLYGIQGIPTLIMLDPQGEVITRQGRVEVLNDEDCREFPWHPKPVLELSDSNAAQLNEGPCLVLFVDSEDDGESEAAKQLIQPIAEKIIAKYKAKEEEAPLLFFVAGEDDMTDSLRDYTNLPEAAPLLTILDMSARAKYVMDVEEITPAIVEAFVNDFLAEKLKPEPI [NXN]”, for which the “solubility in G1/S (log2)” value in the data set on HeLa Kyoto [1] stood at 0.175. The melting temperature in the data set on HeLa Kyoto [2] (cell cycle stage: G1/S) and with HeLa Kyoto [2] (cell cycle stage: mitosis) was 51 °C in each case. In addition, the “solubility change mitosis (log2)” value in the data set on HeLa Kyoto [3] was -0.204. Moreover, the thermal stability score with HeLa Kyoto [4] (setting [5]) came to 1.06; in the data set on HeLa Kyoto [4] (cell cycle stage: mitosis), 1.73.

Turning to “MSGGGPSGGGPGGSGRARTSSFAEPGGGGGGGGGGPGGSASGPGGTGGGKASVGAMGGGVGASSSGGGPGGSGGGGSGGPGAGTSFPPPGVKLGRDSGKVTTVVATLGQGPERSQEVAYTDIKVIGNGSFGVVYQARLAETRELVAIKKVLQDKRFKNRELQIMRKLDHCNIVRLRYFFYSSGEKKDELYLNLVLEYVPETVYRVARHFTKAKLTIPILYVKVYMYQLFRSLAYIHSQGVCHRDIKPQNLLVDPDTAVLKLCDFGSAKQLVRGEPNVSYICSRYYRAPELIFGATDYTSSIDVWSAGCVLAELLLGQPIFPGDSGVDQLVEIIKVLGTPTREQIREMNPNYTEFKFPQIKAHPWTKVFKSRTPPEAIALCSSLLEYTPSSRLSPLEACAHSFFDELRCLGTQLPNNRPLPPLFNFSAGELSIQPSLNAILIPPHLRSPAGTTTLTPSSQALTETPTSSDWQSTDATPTLTNSS [GSK3A]”, in the data set with HeLa Kyoto [1], the “solubility in G1/S (log2)” value turned out to be 0.181. Moreover, the melting temperature in the data set with HeLa Kyoto [2] (cell cycle stage: G1/S) came to 52.3 °C; with HeLa Kyoto [2] (cell cycle stage: mitosis), 52.7 °C. Also, the “solubility change mitosis (log2)” value in the data set on HeLa Kyoto [3] is -0.0272. The thermal stability score was -1 in the data set with HeLa Kyoto [4] (setting [5]) and -0.972 in the data set on HeLa Kyoto [4] (cell cycle stage: mitosis).

Consider “MSGLRVYSTSVTGSREIKSQQSEVTRILDGKRIQYQLVDISQDNALRDEMRALAGNPKATPPQIVNGDQYCGDYELFVEAVEQNTLQEFLKLA [SH3BGRL3]”, for which the “solubility in G1/S (log2)” value in the data set with HeLa Kyoto [1] is -0.259. The figures for the melting temperature with HeLa Kyoto [2] (cell cycle stage: G1/S) and in the data set on HeLa Kyoto [2] (cell cycle stage: mitosis) were 54.2 °C and 52.6 °C, respectively. In addition, the “solubility change mitosis (log2)” value in the data set on HeLa Kyoto [3] was -0.132. Also, the thermal stability score was -2.26 with HeLa Kyoto [4] (setting [5]) and -3.11 with HeLa Kyoto [4] (cell cycle stage: mitosis).

Values taken from the supplement of paper PMC5998384.
